Here are results for two substances from article PMC3852957.

Experiment [1] deals with human GLP-1 receptor (human) (UniProt P43220).
Experiment [2] has as its target cynomolgus monkey serum albumin (cynomolgus monkey) (UniProt A2V9Z4). Description: SPR; Biacore; 500 resonance units of albumin coupled to a CM5 chip; GAlbudAb flowed in HBS-P+ buffer at 39 nM to 5 μM; KD by the 1:1 interaction model in BiaEval software.
The target in experiment [3] is human serum albumin (human) (UniProt P02768). The description is as above.
UniProt P02768, sequence (P02768 25-609): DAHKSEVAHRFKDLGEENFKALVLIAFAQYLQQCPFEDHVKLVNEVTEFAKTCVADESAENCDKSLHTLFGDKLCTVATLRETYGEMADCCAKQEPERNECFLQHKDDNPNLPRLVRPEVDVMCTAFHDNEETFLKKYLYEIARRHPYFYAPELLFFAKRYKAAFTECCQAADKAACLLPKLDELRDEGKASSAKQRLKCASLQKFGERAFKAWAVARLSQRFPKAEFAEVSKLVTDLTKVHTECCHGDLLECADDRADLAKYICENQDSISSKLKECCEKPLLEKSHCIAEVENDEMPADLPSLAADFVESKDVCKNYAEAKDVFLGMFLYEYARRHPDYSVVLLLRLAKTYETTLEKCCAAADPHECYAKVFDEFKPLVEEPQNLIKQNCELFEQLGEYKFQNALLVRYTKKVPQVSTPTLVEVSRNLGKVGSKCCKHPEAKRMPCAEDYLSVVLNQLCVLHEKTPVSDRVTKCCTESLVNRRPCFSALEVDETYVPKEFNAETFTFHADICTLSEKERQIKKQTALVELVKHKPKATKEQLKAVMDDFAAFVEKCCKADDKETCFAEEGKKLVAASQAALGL
The target of experiment [4] is rat serum albumin (rat) (UniProt P02770). Described as above.
UniProt P02770, sequence (P02770 25-608): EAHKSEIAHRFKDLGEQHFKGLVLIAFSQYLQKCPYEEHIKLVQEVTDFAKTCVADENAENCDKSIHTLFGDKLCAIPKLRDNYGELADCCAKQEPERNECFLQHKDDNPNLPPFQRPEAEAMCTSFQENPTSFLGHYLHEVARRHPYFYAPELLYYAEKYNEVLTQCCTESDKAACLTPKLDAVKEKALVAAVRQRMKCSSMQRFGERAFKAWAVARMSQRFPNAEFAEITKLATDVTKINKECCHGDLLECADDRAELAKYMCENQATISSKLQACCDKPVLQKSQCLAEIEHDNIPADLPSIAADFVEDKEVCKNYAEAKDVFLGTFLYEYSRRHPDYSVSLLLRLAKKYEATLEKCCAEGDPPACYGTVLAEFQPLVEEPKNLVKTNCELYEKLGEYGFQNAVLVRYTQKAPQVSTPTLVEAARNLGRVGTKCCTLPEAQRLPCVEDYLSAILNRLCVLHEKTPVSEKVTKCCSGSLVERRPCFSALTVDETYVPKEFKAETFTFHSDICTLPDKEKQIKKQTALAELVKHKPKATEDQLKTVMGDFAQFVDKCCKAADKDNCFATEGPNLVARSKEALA

UniProt P43220, sequence (P43220 24-463): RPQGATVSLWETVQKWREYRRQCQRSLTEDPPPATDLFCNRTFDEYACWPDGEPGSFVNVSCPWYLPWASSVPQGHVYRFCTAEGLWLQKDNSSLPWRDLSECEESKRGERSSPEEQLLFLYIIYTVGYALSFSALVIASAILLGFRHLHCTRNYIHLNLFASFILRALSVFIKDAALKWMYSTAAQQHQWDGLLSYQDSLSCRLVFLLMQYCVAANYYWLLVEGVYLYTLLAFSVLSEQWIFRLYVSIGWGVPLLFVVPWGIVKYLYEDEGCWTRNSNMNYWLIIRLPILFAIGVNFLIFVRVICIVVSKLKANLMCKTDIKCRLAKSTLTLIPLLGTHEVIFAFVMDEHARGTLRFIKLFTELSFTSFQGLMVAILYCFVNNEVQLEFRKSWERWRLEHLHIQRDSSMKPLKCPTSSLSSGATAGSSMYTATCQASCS
UniProt A2V9Z4, sequence (A2V9Z4 25-608): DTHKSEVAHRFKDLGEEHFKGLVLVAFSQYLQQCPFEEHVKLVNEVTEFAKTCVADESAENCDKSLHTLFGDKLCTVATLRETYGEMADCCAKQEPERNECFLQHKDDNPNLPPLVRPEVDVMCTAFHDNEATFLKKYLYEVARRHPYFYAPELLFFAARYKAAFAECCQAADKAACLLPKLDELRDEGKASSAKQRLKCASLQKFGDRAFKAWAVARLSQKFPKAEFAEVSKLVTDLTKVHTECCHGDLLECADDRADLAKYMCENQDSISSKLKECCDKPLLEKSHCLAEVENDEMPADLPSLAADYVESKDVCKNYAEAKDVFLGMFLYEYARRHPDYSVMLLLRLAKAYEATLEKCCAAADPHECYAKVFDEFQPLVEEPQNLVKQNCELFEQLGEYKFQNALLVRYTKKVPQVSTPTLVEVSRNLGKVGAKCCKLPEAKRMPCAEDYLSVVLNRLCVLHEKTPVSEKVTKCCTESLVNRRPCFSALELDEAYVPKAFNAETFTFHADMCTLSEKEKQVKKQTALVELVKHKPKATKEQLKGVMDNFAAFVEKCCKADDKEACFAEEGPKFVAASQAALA

For “GAlbudAb, DPP-IV resistant GLP-1 (7–36, A8G) fused to the DOM7h-14 AlbudAb”, the cAMP-driven luciferase reporter gene expression in CHO cells stably transfected with human GLP-1 receptor (EC50) in experiment [1] was found to be 0.1 nM. For the same substance, the figures for the Kd in experiment [2], in experiment [3] and in experiment [4] were 395 nM, 143 nM and 275 nM, respectively.

In experiment [1], GLP-1 (7–36) peptide yielded a cAMP-driven luciferase reporter gene expression in CHO cells stably transfected with human GLP-1 receptor (EC50) of 0.1 nM.
